Measurements as given in US20140302027A1, “METHODS OF TREATING PERIODONTAL INFLAMMATION AND PERIODONTAL BONE LOSS” (United States of America as Represented by the Secretary, …, priority 2011, published 2014).
Entries after “also recorded” stand apart in the source; their conditions may differ.

Columns and labels:
[1] = system: inflammatory mediators in the gingiva of aged mice; assay: qPCR of gingival mRNA in aged mice after local administration of soluble Del-1; assay type: in vivo, C57BL/6 mice; settings: 12 h
Description: (§1) Ten 18-month-old C57BL/6 mice were microinjected in the gingiva with soluble recombinant mouse Del-1 (kindly provided by Valentis, Inc.)^4 and another ten mice with BSA control. Specifically, Del-1 or BSA (1 μg in 1-μl volume) were microinjected through a 28.5-gauge MicroFine needle (BD) into the palatal gingiva between the first and the second molar teeth, on both sides of the maxilla. Half of the Del-1 or BSAtreated mice were additionally orally inoculated with P. gingivalis ATCC 33277 (10^9 CFU) in 2% carboxymethylcellulose vehicle and the other half were orally given vehicle alone. All mice were sacrificed 12 h later. Maxillae were harvested and one side was stored in 4% paraformaldehyde for immunohistochemistry (see below), while the other side was used to dissect interdental gingiva which were placed into RNAlater solution (Ambion) for qPCR (see below). To determine whether IL-17 regulates Del-1 expression, a neutralizing anti-IL-17A mAb (clone M210, rat IgG2a; kindly provided by Amgen) was microinjected into the palatal gingiva (1 μg) as described above. Purified azide-free rat IgG2a (Biolegend) served as control. qPCR was used to determine […] in dissected gingiva.
Total RNA was extracted from excised gingival tissue or cultured cells using the PerfectPure RNA cell kit (5 Prime, Fisher) and quantified by spectrometry at 260 and 280 nm. The RNA was reverse-transcribed using the High-Capacity cDNA Archive kit (Applied Biosystems) and qPCR with cDNA was performed using the ABI 7500 Fast System, according to the manufacturer's protocol (Applied Biosystems). TaqMan probes, sense primers, and antisense primers for qPCR of genes investigated in this paper were purchased from Applied Biosystems.

[2] = system: periodontal inflammation in old mice; assay: Immunohistochemistry of interdental gingiva of old mice microinjected with Del-1 or BSA; assay type: in vivo, C57BL/6 mice
Description: FIG. 24. Del-1 inhibits IL-17 and periodontal inflammation in old mice. Eighteen-month-old C57BL/6 mice were microinjected in the gingiva with BSA (control) or Del-1, as indicated. In addition, the mice were orally administered P. gingivalis in 2% carboxymethylcellulose vehicle (a, b, c; lower rows) or vehicle control (a, b, c; upper rows) and were sacrificed 12 h later. Sagittal sections of interdental gingiva were stained for the neutrophil marker Ly6G (a), IL-17A (b), or TNF (c). Shown are typical fluorescent confocal images (left) and their overlays with corresponding DIC images (right). (d) The fluorescence intensities of these and additional representative images from independent mice were quantified using ImageJ analysis; data were expressed as % intensity of the Del-1-treated groups relative to the BSA-treated controls, the value of which was set to 100% (dashed line). ‘Induced inflammation’ refers to the groups inoculated with P. gingivalis. Data are means±SD (n=5 mice per group) from one of two independent experiments yielding similar results. **P<0.01 compared to BSA-treated controls.
as §1
Maxillae with intact surrounding tissue were fixed in 4% paraformaldehyde, decalcified in Immunocal solution (Decal) for 15 days, and embedded in OCT compound. Serial mesio-distal sections (7- to 8-μm thick) parallel to the long axis of the teeth (sagittal) were stained with monoclonal antibodies to mouse Ly6G (RB6-8C5, FITC-conjugate; LifeSpan BioSciences), mouse CD4 (GK1.5, FITC- or PE-conjugate; LifeSpan), mouse γδ T-cell receptor (GL3, FITC-conjugate; LifeSpan Biosciences) or with polyclonal antibodies to human/mouse Del-1 (ProteinTech), human/mouse IL-17A (Santa Cruz Biotech), human/mouse TNF (Abcam), human/mouse RANKL (Santa Cruz), and mouse CD31 (LifeSpan). Where necessary, staining involved the use of a secondary reagent (AlexaFluor594-conjugated goat anti-rabbit IgG; Molecular Probes). The specificity of staining was confirmed by using appropriate FITC-conjugated isotype controls or normal rabbit IgG followed by AlexaFluor594-goat anti-rabbit IgG. Images were captured using a laser-scanning confocal microscope (Olympus FV1000). Fluorescence intensity was quantified using the Image J software (NIH; http://rsb.info.nih.gov/ij).

[3] = system: WT neutrophils; assay: Cytokine/chemokine release by isolated neutrophils stimulated with LPS plus C5a; assay type: cell-based, mouse; settings: soluble Del-1 10 μg/ml, LPS (100 ng/ml) plus C5a (10 nM), 4 h
Description: FIG. 27. Effects of Del-1 deficiency or Del-1 on neutrophil function. (a) Migration of neutrophils isolated from wild-type (WT) or Edil3^−/− mice was tested in a transwell system. Chemokinesis (in the absence of a chemokine in the bottom well) or chemotaxis to CXCL2 (10 ng/ml) in the bottom well was assessed after 60 min. The migration of WT neutrophils in the absence of chemokine was set as the 100% control (dashed line) and the data were expressed relative to this value. (b) Neutrophils isolated from WT or Edil3^−/− mice were stimulated or not for 4 h with LPS (100 ng/ml) plus C5a (10 nM) and release of the indicated cytokines or chemokines in the culture supernatants was determined by ELISA. (c) WT neutrophils, in the presence or absence of soluble Del-1 (10 μg/ml), were stimulated as above and assayed for release of the indicated cytokines or chemokines. Data are means±SD (n=3 sets of neutrophils), from one of two independent sets of experiments yielding similar results.
Mouse neutrophils were obtained by harvesting the bone marrow (Ley (2007)). Briefly, bone marrow cells, obtained after flushing tibias and femurs with RPMI 1640 containing 10% FBS, were depleted of tissue debris and erythrocytes and were resuspended in 45% Percoll. […] Neutrophil purity was routinely >95%, as determined by FACS after staining for Ly6G, F4/80, and CD3.

[4] = target: T1, LFA-1 (Mus musculus, UniProt P24063); settings: at equimolar amounts; cited from earlier work
T1 construct: host or cells: leukocytes (endogenous LFA-1)

[5] = system: mouse neutrophils; settings: cited from earlier work
[6] = 18-month-old mice, local gingival microinjection 1 μg, compared to BSA control

T1 sequence (P24063 24-1162): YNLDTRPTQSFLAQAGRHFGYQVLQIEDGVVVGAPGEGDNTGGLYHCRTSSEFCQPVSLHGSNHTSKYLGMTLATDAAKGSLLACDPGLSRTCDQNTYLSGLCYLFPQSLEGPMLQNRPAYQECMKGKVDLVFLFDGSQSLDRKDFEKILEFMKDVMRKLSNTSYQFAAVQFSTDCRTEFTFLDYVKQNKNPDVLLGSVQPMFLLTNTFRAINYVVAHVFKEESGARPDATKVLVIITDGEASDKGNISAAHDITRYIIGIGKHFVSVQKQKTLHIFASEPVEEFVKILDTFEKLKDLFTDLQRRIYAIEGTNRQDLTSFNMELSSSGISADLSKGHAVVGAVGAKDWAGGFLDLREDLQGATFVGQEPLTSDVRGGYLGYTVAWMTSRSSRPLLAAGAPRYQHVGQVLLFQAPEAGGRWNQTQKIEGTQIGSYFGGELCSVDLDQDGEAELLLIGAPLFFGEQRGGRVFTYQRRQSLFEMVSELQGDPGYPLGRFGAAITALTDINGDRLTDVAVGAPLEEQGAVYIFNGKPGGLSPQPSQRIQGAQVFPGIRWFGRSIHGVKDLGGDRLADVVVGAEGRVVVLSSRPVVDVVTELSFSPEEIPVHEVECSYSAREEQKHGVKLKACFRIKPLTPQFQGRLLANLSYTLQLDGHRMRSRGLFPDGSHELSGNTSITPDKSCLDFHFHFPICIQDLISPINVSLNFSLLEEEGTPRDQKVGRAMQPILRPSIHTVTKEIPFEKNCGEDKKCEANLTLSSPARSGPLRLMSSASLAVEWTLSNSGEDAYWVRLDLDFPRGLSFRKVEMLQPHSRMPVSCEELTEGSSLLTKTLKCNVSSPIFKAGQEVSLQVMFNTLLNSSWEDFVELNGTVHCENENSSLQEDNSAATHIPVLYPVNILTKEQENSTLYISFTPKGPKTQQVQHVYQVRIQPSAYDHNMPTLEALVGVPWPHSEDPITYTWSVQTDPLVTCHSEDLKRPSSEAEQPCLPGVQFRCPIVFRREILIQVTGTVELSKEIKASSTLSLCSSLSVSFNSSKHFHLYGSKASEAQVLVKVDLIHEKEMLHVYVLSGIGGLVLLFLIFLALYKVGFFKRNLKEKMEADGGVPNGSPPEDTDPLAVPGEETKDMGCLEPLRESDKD
T1 sequence (P11835 24-771 partner): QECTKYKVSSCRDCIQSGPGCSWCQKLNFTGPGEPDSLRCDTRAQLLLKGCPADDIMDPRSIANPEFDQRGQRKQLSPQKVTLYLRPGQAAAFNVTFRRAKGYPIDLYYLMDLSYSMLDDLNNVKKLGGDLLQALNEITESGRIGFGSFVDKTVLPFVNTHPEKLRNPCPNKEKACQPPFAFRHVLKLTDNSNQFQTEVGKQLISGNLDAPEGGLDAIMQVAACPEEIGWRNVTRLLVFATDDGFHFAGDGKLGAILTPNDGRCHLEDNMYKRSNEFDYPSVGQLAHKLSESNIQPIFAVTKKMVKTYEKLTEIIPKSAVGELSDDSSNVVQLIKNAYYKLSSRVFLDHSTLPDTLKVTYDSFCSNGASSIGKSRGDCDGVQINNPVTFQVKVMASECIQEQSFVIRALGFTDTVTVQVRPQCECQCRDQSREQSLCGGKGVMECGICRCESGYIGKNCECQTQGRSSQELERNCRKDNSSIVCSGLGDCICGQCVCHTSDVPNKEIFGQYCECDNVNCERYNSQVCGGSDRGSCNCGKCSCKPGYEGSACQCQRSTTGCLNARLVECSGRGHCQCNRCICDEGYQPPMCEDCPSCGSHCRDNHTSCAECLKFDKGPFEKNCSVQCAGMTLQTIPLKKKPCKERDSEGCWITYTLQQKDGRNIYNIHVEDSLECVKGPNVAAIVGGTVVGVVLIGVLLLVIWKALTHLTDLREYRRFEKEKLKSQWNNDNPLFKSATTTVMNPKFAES

B1: Del-1: soluble recombinant mouse Del-1 (provided by Valentis, Inc.); endothelial cell-expressed 52-kDa glycoprotein (protein)
chain: DICDPNPCENGGICLPGLADGSFSCECPDGFTDPNCSSVVEVASDEEEPTSAGPCTPNPCHNGGTCEISEAYRGDTFIGYVCKCPRGFNGIHCQHNINECEVEPCKNGGICTDLVANYSCECPGEFMGRNCQYKCSGPLGIEGGIISNQQITASSTHRALFGLQKWYPYYARLNKKGLINAWTAAENDRWPWIQINLQRKMRVTGVITQGAKRIGSPEYIKSYKIAYSNDGKTWAMYKVKGTNEDMVFRGNIDNNTPYANSFTPPIKAQYVRLYPQVCRRHCTLRMELLGCELSGCSEPLGMKSGHIQDYQITASSIFRTLNMDMFTWEPRKARLDKQGKVNAWTSGHNDQSQWLQVDLLVPTKVTGIITQGAKDFGHVQFVGSYKLAYSNDGEHWTVYQDEKQRKDKVFQGNFDNDTHRKNVIDPPIYARHIRILPWSWYGRITLRSELLGCTEEE
C3aR mRNA, Fold change vs. Del-1-untreated controls ([1]; CMC only): 0.49 Fold change | C5aR mRNA, Fold change vs. Del-1-untreated controls ([1]; CMC only): 0.50 Fold change | CCL2 mRNA, Fold change vs. Del-1-untreated controls ([1]; CMC only): 0.48 Fold change | CCL3 mRNA, Fold change vs. Del-1-untreated controls ([1]; CMC only): 1.02 Fold change | CCL20 mRNA, Fold change vs. Del-1-untreated controls ([1]; CMC only): 0.24 Fold change | CCR2 mRNA, Fold change vs. Del-1-untreated controls ([1]; CMC only): 0.26 Fold change | CCR6 mRNA, Fold change vs. Del-1-untreated controls ([1]; CMC only): 0.25 Fold change | CD40 mRNA, Fold change vs. Del-1-untreated controls ([1]; CMC only): 0.24 Fold change | CD80 mRNA, Fold change vs. Del-1-untreated controls ([1]; CMC only): 0.25 Fold change | CD86 mRNA, Fold change vs. Del-1-untreated controls ([1]; CMC only): 0.50 Fold change | CXCL10 mRNA, Fold change vs. Del-1-untreated controls ([1]; CMC only): 0.25 Fold change | CXCR4 mRNA, Fold change vs. Del-1-untreated controls ([1]; CMC only): 0.50 Fold change | G-CSF mRNA, Fold change vs. Del-1-untreated controls ([1]; CMC only): 0.12 Fold change | IL-1 mRNA, Fold change vs. Del-1-untreated controls ([1]; CMC only): 0.50 Fold change | IL-6 mRNA, Fold change vs. Del-1-untreated controls ([1]; CMC only): 0.25 Fold change | IL-17 mRNA, Fold change vs. Del-1-untreated controls ([1]; CMC only): 0.19 Fold change | RANKL mRNA, Fold change vs. Del-1-untreated controls ([1]; CMC only): 0.49 Fold change | TLR1 mRNA, Fold change vs. Del-1-untreated controls ([1]; CMC only): 0.24 Fold change | TLR2 mRNA, Fold change vs. Del-1-untreated controls ([1]; CMC only): 0.26 Fold change | TLR4 mRNA, Fold change vs. Del-1-untreated controls ([1]; CMC only): 0.25 Fold change | TLR5 mRNA, Fold change vs. Del-1-untreated controls ([1]; CMC only): 0.51 Fold change | TLR6 mRNA, Fold change vs. Del-1-untreated controls ([1]; CMC only): 0.27 Fold change | TLR9 mRNA, Fold change vs. Del-1-untreated controls ([1]; CMC only): 0.25 Fold change | TNF mRNA, Fold change vs. Del-1-untreated controls ([1]; CMC only): 0.50 Fold change | TREM-1 mRNA, Fold change vs. Del-1-untreated controls ([1]; CMC only): 0.49 Fold change | C3aR mRNA, Fold change vs. Del-1-untreated controls ([1]; Pg (P. gingivalis inoculated)): 0.49 Fold change | C5aR mRNA, Fold change vs. Del-1-untreated controls ([1]; Pg (P. gingivalis inoculated)): 0.25 Fold change | CCL2 mRNA, Fold change vs. Del-1-untreated controls ([1]; Pg (P. gingivalis inoculated)): 0.49 Fold change | CCL3 mRNA, Fold change vs. Del-1-untreated controls ([1]; Pg (P. gingivalis inoculated)): 0.51 Fold change | CCL20 mRNA, Fold change vs. Del-1-untreated controls ([1]; Pg (P. gingivalis inoculated)): 0.49 Fold change | CCR2 mRNA, Fold change vs. Del-1-untreated controls ([1]; Pg (P. gingivalis inoculated)): 0.12 Fold change | CCR6 mRNA, Fold change vs. Del-1-untreated controls ([1]; Pg (P. gingivalis inoculated)): 0.13 Fold change | CD40 mRNA, Fold change vs. Del-1-untreated controls ([1]; Pg (P. gingivalis inoculated)): 0.25 Fold change | CD80 mRNA, Fold change vs. Del-1-untreated controls ([1]; Pg (P. gingivalis inoculated)): 0.25 Fold change | CD86 mRNA, Fold change vs. Del-1-untreated controls ([1]; Pg (P. gingivalis inoculated)): 0.49 Fold change | CXCL10 mRNA, Fold change vs. Del-1-untreated controls ([1]; Pg (P. gingivalis inoculated)): 0.26 Fold change | CXCR4 mRNA, Fold change vs. Del-1-untreated controls ([1]; Pg (P. gingivalis inoculated)): 0.24 Fold change | G-CSF mRNA, Fold change vs. Del-1-untreated controls ([1]; Pg (P. gingivalis inoculated)): 0.25 Fold change | IL-1 mRNA, Fold change vs. Del-1-untreated controls ([1]; Pg (P. gingivalis inoculated)): 0.25 Fold change | IL-6 mRNA, Fold change vs. Del-1-untreated controls ([1]; Pg (P. gingivalis inoculated)): 0.24 Fold change | IL-17 mRNA, Fold change vs. Del-1-untreated controls ([1]; Pg (P. gingivalis inoculated)): 0.25 Fold change | RANKL mRNA, Fold change vs. Del-1-untreated controls ([1]; Pg (P. gingivalis inoculated)): 0.25 Fold change | TLR1 mRNA, Fold change vs. Del-1-untreated controls ([1]; Pg (P. gingivalis inoculated)): 0.24 Fold change | TLR2 mRNA, Fold change vs. Del-1-untreated controls ([1]; Pg (P. gingivalis inoculated)): 0.25 Fold change | TLR4 mRNA, Fold change vs. Del-1-untreated controls ([1]; Pg (P. gingivalis inoculated)): 0.12 Fold change | TLR5 mRNA, Fold change vs. Del-1-untreated controls ([1]; Pg (P. gingivalis inoculated)): 0.51 Fold change | TLR6 mRNA, Fold change vs. Del-1-untreated controls ([1]; Pg (P. gingivalis inoculated)): 0.26 Fold change | TLR9 mRNA, Fold change vs. Del-1-untreated controls ([1]; Pg (P. gingivalis inoculated)): 0.51 Fold change | TNF mRNA, Fold change vs. Del-1-untreated controls ([1]; Pg (P. gingivalis inoculated)): 0.51 Fold change | TREM-1 mRNA, Fold change vs. Del-1-untreated controls ([1]; Pg (P. gingivalis inoculated)): 0.24 Fold change | expression of IL-17 in the periodontium [2, 6]: diminished | expression of TNF in the periodontium [2, 6]: diminished | neutrophil infiltration in the periodontium (Ly6G staining) [2, 6]: reduced | inflammation induced by oral inoculation with Porphyromonas gingivalis ([2]; old mice, P. gingivalis inoculated): suppressed | constitutive (naturally occurring) inflammation ([2]; old mice, vehicle only): suppressed | cytokine and chemokine induction (TNF, CXCL1 release) by neutrophils [3]: did not exert a direct effect; also recorded: No significant differences | competition with ICAM-1 for binding to LFA-1 on leukocytes [4]: outcompetes ICAM-1 | LFA-1-dependent adhesion of mouse neutrophils to mouse endothelial cells [5]: competitively inhibits
